Test results reported in article PMC11549101, “Structural insights into human zinc transporter ZnT1 mediated Zn^2+ efflux” (EMBO Reports, 2024).

Columns and labels:
[1] = molecular target: the molecule itself; assay: cryo-EM structure; single-particle cryo-EM of purified hZnT1 in LMNG/CHS micelles, 50 mM HEPES-Na pH 7.5, 150 mM NaCl, no Zn2+ supplement, no EDTA treatment; 3.48 Å map, C1
[2] = molecular target: the molecule itself; assay: cryo-EM structure; single-particle cryo-EM of purified hZnT3(50-388) in LMNG/CHS micelles, 50 mM MES pH 6.0, 150 mM NaCl, 1 mM ZnSO4; 3.14 Å map

Row | Protein | stoichiometry N [1] | stoichiometry N [2]
1 | human zinc transporter 1 (ZnT1), full-length wild type (natural protein, UniProt Q9Y6M5 1-507, looked up, Zinc transporter 1 (ZnT1/SLC30A1), human, full-length wild type, codon-optimised synthetic cDNA; residues 138-240 and 448-507 not modelled in the map; also called hZnT1; SLC30A1; source: HEK293F cells, transfected; not shown: FLAG, C-terminal, cleaved; mCherry, C-terminal, cleaved) MGCWGRNRGRLLCMLALTFMFMVLEVVVSRVTSSLAMLSDSFHMLSDVLALVVALVAERFARRTHATQKNTFGWIRAEVMGALVNAIFLTGLCFAILLEAIERFIEPHEMQQPLVVLGVGVAGLLVNVLGLCLFHHHSGFSQDSGHGHSHGGHGHGHGLPKGPRVKSTRPGSSDINVAPGEQGPDQEETNTLVANTSNSNGLKLDPADPENPRSGDTVEVQVNGNLVREPDHMELEEDRAGQLNMRGVFLHVLGDALGSVIVVVNALVFYFSWKGCSEGDFCVNPCFPDPCKAFVEIINSTHASVYEAGPCWVLYLDPTLCVVMVCILLYTTYPLLKESALILLQTVPKQIDIRNLIKELRNVEGVEEVHELHVWQLAGSRIIATAHIKCEDPTSYMEVAKTIKDVFHNHGIHATTIQPEFASVGSKSSVVPCELACRTQCALKQCCGTLPQAPSGKDAEKTPAVSISCLELSNNLEKKPRRTKAENIPAVVIEIKNMPNKQPESSL | 2 | –
2 | human zinc transporter 3 (ZnT3) lacking the N-terminal 49 residues, ZnT3(50-388) (domain or fragment, UniProt Q99726 50-388, looked up, Zinc transporter 3 (ZnT3/SLC30A3), human, residues 50-388 (lacking the N-terminal 49 residues); No protease step is described for ZnT3, so the tags were probably still on the chain; also called hZnT3; SLC30A3; source: HEK293F cells, transfected) MPFHHCHRDPLPPPGLTPERLHARRQLYAACAVCFVFMAGEVVGGYLAHSLAIMTDAAHLLADVGSMMGSLFSLWLSTRPATRTMTFGWHRSETLGALASVVSLWMVTGILLYLAFVRLLHSDYHIEGGAMLLTASIAVCANLLMAFVLHQAGPPHSHGSRGAEYAPLEEGPEEPLPLGNTSVRAAFVHVLGDLLQSFGVLAASILIYFKPQYKAADPISTFLFSICALGSTAPTLRDVLRILMEGTPRNVGFEPVRDTLLSVPGVRATHELHLWALTLTYHVASAHLAIDSTADPEAVLAEASSRLYSRFGFSSCTLQVEQYQPEMAQCLRCQEPPQA | – | 2
